{"source": "paper PMC12489471", "about": "“A multi-dentate, cooperative interaction between endo- and exo-ribonucleases within the bacterial RNA degradosome” (Nucleic Acids Research, 2025)", "molecules": {"B1": {"name": "E. coli PNPase core (domain or fragment, UniProt P05055 1-552, looked up)", "chain": "MLNPIVRKFQYGQHTVTLETGMMARQATAAVMVSMDDTAVFVTVVGQKKAKPGQDFFPLTVNYQERTYAAGRIPGSFFRREGRPSEGETLIARLIDRPIRPLFPEGFVNEVQVIATVVSVNPQVNPDIVAMIGASAALSLSGIPFNGPIGAARVGYINDQYVLNPTQDELKESKLDLVVAGTEAAVLMVESEAQLLSEDQMLGAVVFGHEQQQVVIQNINELVKEAGKPRWDWQPEPVNEALNARVAALAEARLSDAYRITDKQERYAQVDVIKSETIATLLAEDETLDENELGEILHAIEKNVVRSRVLAGEPRIDGREKDMIRGLDVRTGVLPRTHGSALFTRGETQALVTATLGTARDAQVLDELMGERTDTFLFHYNFPPYSVGETGMVGSPKRREIGHGRLAKRGVLAVMPDMDKFPYTVRVVSEITESNGSSSMASVCGASLALMDAGVPIKAAVAGIAMGLVKEGDNYVVLSDILGDEDHLGDMDFKVAGSRDGISALQMDIKIEGITKEIMQVALNQAKGARLHILGVMEQAINAPRGDISEFA", "notes": "polynucleotide phosphorylase (PNPase) core lacking the KH and S1 domains, E. coli, aa 1–552 by the methods (1–550 in the results and a legend); also called PNPase core (1–550); PNPase core (aa 1–552); source: E. coli Evo21(DE3), purified (Ni-NTA, intein cleavage, HIC, Q, Superdex 200); not shown: Mycobacterium xenopi GyrA intein, C-terminal, cleaved; His8, C-terminal, cleaved"}}, "key": {"[1]": {"target": "S. enterica PNPase core (Salmonella enterica serovar Typhimurium) (UniProt Q8ZLT3)", "assay": "cryo-EM structure; purified PNPase core and RNase E-muGFP-CHis mixed 1:2, complex separated on Superdex 200 Increase in 20 mM Tris–HCl pH 8.0, 25 mM MgCl2, 150 mM KCl, 1 mM TCEP; 8 mM CHAPSO; E. coli and S. enterica proteins"}, "[2]": {"target": "T1, PNPase carrying a C-terminal Hisx6 tag (E. coli polynucleotide phosphorylase) (E. coli, UniProt P05055 1-711)", "T1 construct": "Held on the NTA chip by its His tag in the SPR; also called PNPase C-His; PNPCHis; source: E. coli Evo21(DE3), purified (Ni-NTA, butyl-Sepharose, Q, SEC); not shown: His6, C-terminal, kept", "T1 sequence (looked up)": "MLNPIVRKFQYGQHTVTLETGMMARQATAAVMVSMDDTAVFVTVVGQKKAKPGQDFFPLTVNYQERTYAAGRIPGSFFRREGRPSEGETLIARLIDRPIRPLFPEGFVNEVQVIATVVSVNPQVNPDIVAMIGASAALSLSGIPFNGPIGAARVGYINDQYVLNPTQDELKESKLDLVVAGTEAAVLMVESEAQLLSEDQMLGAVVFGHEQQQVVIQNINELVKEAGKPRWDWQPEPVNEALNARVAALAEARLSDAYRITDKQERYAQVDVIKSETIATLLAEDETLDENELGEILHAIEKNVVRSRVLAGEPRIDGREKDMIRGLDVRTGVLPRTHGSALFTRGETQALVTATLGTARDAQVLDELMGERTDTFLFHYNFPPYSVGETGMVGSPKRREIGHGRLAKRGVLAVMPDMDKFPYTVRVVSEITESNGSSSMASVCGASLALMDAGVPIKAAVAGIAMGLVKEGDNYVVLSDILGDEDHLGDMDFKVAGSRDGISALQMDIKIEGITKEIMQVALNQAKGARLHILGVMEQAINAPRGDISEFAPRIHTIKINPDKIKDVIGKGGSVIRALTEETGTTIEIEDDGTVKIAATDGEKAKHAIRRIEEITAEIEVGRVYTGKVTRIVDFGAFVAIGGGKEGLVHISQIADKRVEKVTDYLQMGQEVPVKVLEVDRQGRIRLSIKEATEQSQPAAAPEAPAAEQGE", "assay": "SPR", "conditions": "both partners purified"}, "[3]": {"target": "the molecule itself", "assay": "cryo-EM structure; PNPase core with RNase E peptide 960–1061; resolution of the peptide insufficient to align the sequence"}, "[4]": {"target": "B1", "assay": "cryo-EM structure; purified PNPase core and RNase E-muGFP-CHis mixed 1:2, complex separated on Superdex 200 Increase in 20 mM Tris–HCl pH 8.0, 25 mM MgCl2, 150 mM KCl, 1 mM TCEP; 8 mM CHAPSO; E. coli and S. enterica proteins", "conditions": "both partners purified"}, "[5]": {"tested_on": "PNPase core", "assay": "Cryo-EM of E. coli PNPase core:RNase E complex", "format": "binding", "conditions": "20 mM Tris–HCl pH 8.0, 25 mM MgCl2, 150 mM KCl, 1 mM TCEP", "method": "The PNPase core encoding sequence from E. coli (aa 1–552), Salmonella enterica serovar Typhimurium (UniProt: Q8ZLT3) (aa 1–552), or Pseudomonas aeruginosa (strain PAO1, UniProt: Q9HV59) (aa 1–553) was amplified using corresponding genomic DNA as a template and cloned into pExp-Mxe-CHis expression vector. The protein of interest, produced as a fusion with C-terminal 8×His-tagged Mycobacterium xenopi GyrA intein, was expressed in Evo21(DE3) cells at 18°C overnight following induction with 0.4 mM IPTG. […] After cleavage, the protein buffer was exchanged using HiPrep 26/10 desalting column (Cytiva), and the protein solution was reapplied to Ni-NTA resin to remove His-tagged intein and uncleaved material. […]\nPurified PNPase core and RNE-muGFP-CHis proteins were mixed in 1:2 ratio and their complex were separated on the Superdex 200 Increase 10/300 GL column (Cytiva) equilibrated with cryo-EM Buffer (20 mM Tris–HCl, pH 8.0, 25 mM MgCl2, 150 mM KCl, 1 mM TCEP). […] The samples were mixed with CHAPSO (3-([3-cholamidopropyl]dimethylammonio)-2-hydroxy-1-propanesulfonate) at a final concentration of 8 mM before being applied onto R2/2 Au Ultrafoil grids (Quantifoil) that had been pre-treated by glow-discharge (PELCO easiGLOW: 60 s, 25 mA, 0.39 mBar). […]"}, "[6]": {"target": "T2, PNPase carrying a C-terminal Hisx6 tag (E. coli polynucleotide phosphorylase) (E. coli, UniProt P05055 1-711)", "T2 construct": "polynucleotide phosphorylase (PNPase), E. coli; Immobilised through the His tag on an NTA chip for SPR; also called PNPase C-His; PNPase with a 6xHisTag at the CTD; source: E. coli Evo21(DE3), purified (Ni-NTA, butyl-Sepharose HIC, Q, Superdex S200); not shown: His6, C-terminal, kept", "T2 sequence (looked up)": "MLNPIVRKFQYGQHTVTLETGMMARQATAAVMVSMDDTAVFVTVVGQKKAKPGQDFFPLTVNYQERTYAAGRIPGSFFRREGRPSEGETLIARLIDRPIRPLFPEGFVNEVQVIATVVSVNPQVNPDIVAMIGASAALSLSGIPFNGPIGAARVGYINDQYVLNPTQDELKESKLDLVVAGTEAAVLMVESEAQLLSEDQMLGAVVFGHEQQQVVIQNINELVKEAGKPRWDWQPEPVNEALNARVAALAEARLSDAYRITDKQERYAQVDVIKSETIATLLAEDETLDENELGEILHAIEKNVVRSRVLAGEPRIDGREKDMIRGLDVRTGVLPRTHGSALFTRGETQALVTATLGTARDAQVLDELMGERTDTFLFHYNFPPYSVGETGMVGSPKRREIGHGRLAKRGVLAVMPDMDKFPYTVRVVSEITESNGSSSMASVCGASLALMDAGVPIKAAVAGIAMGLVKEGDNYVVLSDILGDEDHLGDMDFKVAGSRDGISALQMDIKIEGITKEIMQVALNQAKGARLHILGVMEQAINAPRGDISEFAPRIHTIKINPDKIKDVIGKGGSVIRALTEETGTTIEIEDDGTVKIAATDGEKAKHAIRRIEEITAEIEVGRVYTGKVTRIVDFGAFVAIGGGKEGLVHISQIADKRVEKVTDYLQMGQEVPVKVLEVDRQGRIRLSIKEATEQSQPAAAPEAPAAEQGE", "assay": "SPR; PNPase with C-terminal His6 tag immobilised on Series S Sensor Chip NTA (5 RU); Biacore T200, 25°C; 20 mM HEPES pH 7.2, 150 mM NaCl, 5 mM MgCl2, 0.5 mM TCEP, 0.05% Tween 20; six peptide concentrations up to 9000 nM (up to 5000 nM for RNase E 985–1061); contact 60 s, dissociation 120 s", "conditions": "both partners purified"}, "[7]": {"target": "T2, PNPase carrying a C-terminal Hisx6 tag …", "assay": "SPR; PNPase with C-terminal His6 tag immobilised on Series S Sensor Chip NTA (5 RU); Biacore T200, 25°C; 20 mM HEPES pH 7.2, 150 mM NaCl, 5 mM MgCl2, 0.5 mM TCEP, 0.05% Tween 20; six peptide concentrations up to 9000 nM (up to 5000 nM for RNase E 985–1061); contact 60 s, dissociation 120 s", "conditions": "both partners purified", "remark": "listed apart in the source"}}, "data": [{"molecule": "S. enterica RNase E 921–1067-muGFP (domain or fragment)", "values": [{"measurement": "stoichiometry N (RNase E peptide per PNPase trimer)", "setting": "[1]", "value": 1}]}, {"molecule": "RNase E 960 – 1061 R1056A (domain or fragment, E. coli, UniProt P21513 960-1061, looked up, source: E. coli Evo21(DE3), purified (Ni-NTA, amylose, TEV cleavage, Q, SEC); not shown: His6, N-terminal, cleaved; MBP, N-terminal, cleaved; intein, C-terminal, cleaved) VVETAEVVVAEPEVVAQPAAPVVAEVAAEVETVAAVEPEVTVEHNHATAPMTRAPAPEYVPEAPRHSDWQRPTFAFEGKGAAGGHTATHHASAAPAAPQPVE", "values": [{"measurement": "kon", "setting": "[2]", "value": 150000, "unit": "M⁻¹ s⁻¹"}]}, {"molecule": "B1", "values": [{"measurement": "stoichiometry N", "setting": "[3]", "value": 3}]}, {"molecule": "E. coli RNase E 921–1061-muGFP (domain or fragment, UniProt P21513 921-1061, looked up, Only residues 1003–1057 are built in the model; also called RNase E-muGFP-Chis; RNE-muGFP-CHis; source: E. coli Evo21(DE3), purified (Ni-NTA, amylose, TEV, Q, Superdex 200); not shown: MBP, N-terminal, cleaved; muGFP, C-terminal, kept; His8, C-terminal, kept) AVTEQPQVITESDVAVAQEVAEQAEPVVEPQEETADIEEVVETAEVVVAEPEVVAQPAAPVVAEVAAEVETVAAVEPEVTVEHNHATAPMTRAPAPEYVPEAPRHSDWQRPTFAFEGKGAAGGHTATHHASAAPARPQPVE", "values": [{"measurement": "stoichiometry N", "setting": "[4]", "value": "1 RNase E peptide per PNPase trimer"}]}, {"molecule": "RNase E 921–1061-muGFP (protein, UniProt P21513 921-1061, looked up, fragment, muGFP fusion) AVTEQPQVITESDVAVAQEVAEQAEPVVEPQEETADIEEVVETAEVVVAEPEVVAQPAAPVVAEVAAEVETVAAVEPEVTVEHNHATAPMTRAPAPEYVPEAPRHSDWQRPTFAFEGKGAAGGHTATHHASAAPARPQPVE", "values": [{"measurement": "binding mode / stoichiometry with E. coli PNPase core", "setting": "[5]", "value": "only one RNase E peptide engages with a PNPase trimer, interacting with two protomers"}]}, {"molecule": "RNase E 985-1053 (domain or fragment, E. coli, UniProt P21513 985-1053, looked up, the SPR methods name a peptide 960–1053; Lacks the terminal Pro-rich motif; Limits differ between results (985–1053) and methods (960–1053); also called RNase E peptide 985–1053; RNase E 960–1053 (methods); source: E. coli Evo21(DE3), pMxe vector, purified (Ni-NTA, amylose, TEV, Q, Superdex 75); not shown: His6, N-terminal, cleaved; MBP, N-terminal, cleaved; intein, C-terminal, cleaved) VAAEVETVAAVEPEVTVEHNHATAPMTRAPAPEYVPEAPRHSDWQRPTFAFEGKGAAGGHTATHHASAA", "values": [{"measurement": "Kd", "setting": "[6]", "value": 11.5, "unit": "µM"}, {"measurement": "koff", "setting": "[6]", "value": 0.339, "unit": "s⁻¹"}, {"measurement": "kon", "setting": "[6]", "value": 29400, "unit": "M⁻¹ s⁻¹"}, {"measurement": "Kd", "setting": "[7]", "value": 100, "unit": "µM"}]}]}
